Eight molecules from US7205275 (dated 2007) can be followed below.

Primed or numbered codes have the meaning given here. Where no end group is shown, it is not given here. [ ]: non-standard residue; d: D form. Fc(3) = Fc: non-antigen-binding fragment of an antibody from proteolytic digestion of a whole antibody (vehicle); Fc(4) = non-antigen-binding fragment of an antibody (from proteolytic digestion of a whole antibody); Fc = immunoglobulin Fc domain fused to the peptide (peptibody); Fc″ = Fc domain of the peptibody fusion

First the molecules themselves.
B1: L1-10 (N) (peptide)
chain: MGAQQKFQPLDELEQTLYEQFMLQQALEGGGGG[Fc(3)]
B2: Con4-40 (C) (peptide)
chain: M[Fc]GGGGGAQTNIQEECEWDPWTCDHMPGKLE
modifications: not fully specified; cysteine pairing not given here
B3: L1-7 (N) (peptide)
chain: MGAQTNFMPMDDLEQRLYEQFILQQGLEGGGGG-Fc
B4: Con4-44 (C) (peptide)
chain: M[Fc(4)]GGGGGAQPIRQEECDWDPWTCEHMWEVLE
modifications: not fully specified; cysteine pairing not given here
B5: Con4 (C) (peptide)
chain: M[Fc]GGGGGAQQEECEWDPWTCEHMLE
modifications: not fully specified (bridges); printed as M-Fc-GGGGGAQQEECEWDPWTCEHMLE; cysteine pairing not given here; also: Fc fusion domain at position 2
B6: L1-21 (N) (peptide)
chain: MGAQHTFQPLDELEETLYYQWLYDQLLEGGGGG-{Fc″}
B7: TN12-9 (N) (peptide)
chain: MGAQFDYCEGVEDPFTFGCDNHLEGGGGGX
modifications: not fully specified (C-terminus, bridges); printed as MGAQ-FDYCEGVEDPFTFGCDNHLE-GGGGG-Fc; cysteine pairing not given here
B8: L1 (N) (peptide)
chain: MGAQKFNPLDELEETLYEQFTFQQLEGGGGG[Fc(3)]

The target of one assay is T1, rat Ang-2 (rAng-2) (rat, UniProt O35462).
T1 chain: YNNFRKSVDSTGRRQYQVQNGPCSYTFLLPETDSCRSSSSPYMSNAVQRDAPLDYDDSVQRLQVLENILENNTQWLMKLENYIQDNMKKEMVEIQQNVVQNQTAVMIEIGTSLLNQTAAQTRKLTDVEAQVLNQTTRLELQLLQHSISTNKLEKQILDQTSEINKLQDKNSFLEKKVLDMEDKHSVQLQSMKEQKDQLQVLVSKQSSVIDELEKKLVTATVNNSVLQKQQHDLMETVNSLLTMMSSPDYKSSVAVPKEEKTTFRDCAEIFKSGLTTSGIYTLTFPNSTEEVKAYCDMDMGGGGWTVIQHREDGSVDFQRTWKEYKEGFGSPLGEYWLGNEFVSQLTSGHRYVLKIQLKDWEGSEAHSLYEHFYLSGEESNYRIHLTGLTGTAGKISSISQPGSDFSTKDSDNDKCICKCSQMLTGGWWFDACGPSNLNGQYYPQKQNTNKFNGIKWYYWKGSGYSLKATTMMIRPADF
Put plainly: competition ELISA vs Tie-2.
For the molecule B1, the IC50 was found to be 0.06 nM.

Consider B2, for which the IC50 came to 0.35 nM.

B3 displayed an IC50 of 0.035 nM.

As to B4, the IC50 came to 0.22 nM.

B5 yielded an IC50 of 0.236 nM.

In the case of B6, the IC50 was found to be 0.204 nM.

Another assay has as its target T2, human Ang-2 (human, UniProt O15123).
T2 chain: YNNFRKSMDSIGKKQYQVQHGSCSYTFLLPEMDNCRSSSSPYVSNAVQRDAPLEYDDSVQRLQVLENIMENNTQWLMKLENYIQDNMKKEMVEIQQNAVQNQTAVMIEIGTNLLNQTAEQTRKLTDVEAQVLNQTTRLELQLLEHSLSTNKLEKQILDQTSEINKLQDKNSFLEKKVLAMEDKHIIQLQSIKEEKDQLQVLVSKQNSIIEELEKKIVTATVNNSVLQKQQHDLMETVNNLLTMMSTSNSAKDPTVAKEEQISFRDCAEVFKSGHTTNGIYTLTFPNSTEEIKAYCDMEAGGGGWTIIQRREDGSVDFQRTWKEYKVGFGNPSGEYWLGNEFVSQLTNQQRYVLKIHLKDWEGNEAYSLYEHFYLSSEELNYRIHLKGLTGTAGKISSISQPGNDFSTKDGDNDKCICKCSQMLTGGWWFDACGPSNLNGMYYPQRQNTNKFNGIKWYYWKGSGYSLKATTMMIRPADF
Put plainly: SPR.
In turn, B1 gave a dissociation constant Kd of 0.77 nM.

In turn, B3 yielded a Kd of 0.24 nM.

On to B4, for which the Kd came to 0.21 nM.

The molecule B5 had an equilibrium dissociation constant (Kd) of 0.38 nM.

Molecule B6 came in with a Kd of 0.24 nM.

Another assay has as its target T2, human Ang-2. Description: competition ELISA vs Tie-2.
In turn, B1 came in with an IC50 of 0.06 nM.

Take B2: the IC50 stood at 0.2 nM.

Consider B3, for which the IC50 is 0.046 nM.

Regarding B4, the IC50 amounted to 0.08 nM.

With B5, the IC50 came out at 0.197 nM.

B6 showed an IC50 of 0.179 nM.

The target of another assay is T3, mouse Ang-1 (mouse, UniProt O08538).
T3 chain: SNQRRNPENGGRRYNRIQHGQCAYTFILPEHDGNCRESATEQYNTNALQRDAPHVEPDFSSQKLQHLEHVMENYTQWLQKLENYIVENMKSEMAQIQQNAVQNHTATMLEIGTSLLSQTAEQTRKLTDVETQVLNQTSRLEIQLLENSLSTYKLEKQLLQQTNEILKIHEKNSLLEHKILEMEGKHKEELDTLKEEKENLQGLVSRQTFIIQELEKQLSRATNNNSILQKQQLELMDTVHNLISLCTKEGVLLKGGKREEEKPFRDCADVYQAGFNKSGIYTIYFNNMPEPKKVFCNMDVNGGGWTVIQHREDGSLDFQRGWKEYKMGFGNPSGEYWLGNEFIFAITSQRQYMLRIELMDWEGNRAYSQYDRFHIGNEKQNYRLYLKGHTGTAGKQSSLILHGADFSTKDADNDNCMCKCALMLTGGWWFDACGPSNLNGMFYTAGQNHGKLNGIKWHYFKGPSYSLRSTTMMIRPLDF
Put plainly: competition ELISA vs Tie-2.
For B3, the IC50 was above 1000 nM.

For the molecule B5, the IC50 was 300 nM.

B6 returned an IC50 above 1000 nM.

A further assay has as its target T4, human Ang-1 (human, UniProt Q15389).
T4 chain: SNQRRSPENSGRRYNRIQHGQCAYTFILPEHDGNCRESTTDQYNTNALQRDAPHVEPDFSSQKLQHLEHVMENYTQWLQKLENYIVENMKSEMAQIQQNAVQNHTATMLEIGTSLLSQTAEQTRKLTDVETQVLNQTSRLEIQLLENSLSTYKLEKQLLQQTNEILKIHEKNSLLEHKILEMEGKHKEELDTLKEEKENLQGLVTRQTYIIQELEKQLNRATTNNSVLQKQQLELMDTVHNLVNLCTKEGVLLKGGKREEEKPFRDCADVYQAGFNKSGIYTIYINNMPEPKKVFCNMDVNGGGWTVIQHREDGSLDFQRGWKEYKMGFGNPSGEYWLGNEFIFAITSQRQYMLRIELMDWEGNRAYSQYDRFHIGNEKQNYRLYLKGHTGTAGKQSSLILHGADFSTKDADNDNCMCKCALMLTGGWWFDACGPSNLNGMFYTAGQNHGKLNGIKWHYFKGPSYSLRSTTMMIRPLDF
Description: competition ELISA vs Tie-2.
Molecule B1 came in with a half-maximal inhibitory concentration (IC50) above 1000 nM.

Consider B2, for which the IC50 was above 1000 nM.

The molecule B3 had an IC50 above 1000 nM.

B4: the IC50 amounted to 43 nM.

B5 showed an IC50 of 200 nM.

For B6, the IC50 is above 1000 nM.

In another assay the target is T5, mouse Ang-2 (mouse, UniProt O35608).
T5 chain: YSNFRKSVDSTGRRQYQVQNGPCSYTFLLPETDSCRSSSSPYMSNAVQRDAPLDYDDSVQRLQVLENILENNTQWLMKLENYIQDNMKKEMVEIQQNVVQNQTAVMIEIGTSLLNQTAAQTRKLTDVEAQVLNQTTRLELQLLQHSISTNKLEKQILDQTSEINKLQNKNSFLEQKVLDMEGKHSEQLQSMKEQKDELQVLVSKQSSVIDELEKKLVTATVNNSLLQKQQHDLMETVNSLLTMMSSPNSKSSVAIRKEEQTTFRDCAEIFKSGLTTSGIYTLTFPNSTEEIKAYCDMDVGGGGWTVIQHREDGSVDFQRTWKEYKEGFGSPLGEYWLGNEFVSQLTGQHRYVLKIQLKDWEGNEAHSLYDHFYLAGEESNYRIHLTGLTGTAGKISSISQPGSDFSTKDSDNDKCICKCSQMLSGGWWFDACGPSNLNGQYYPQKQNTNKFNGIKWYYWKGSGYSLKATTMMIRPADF
Description: competition ELISA vs Tie-2.
As to B1, the IC50 was 0.06 nM.

B2: the IC50 came out at 0.27 nM.

In turn, B3 returned a concentration for half-maximal inhibition (IC50) of 0.063 nM.

In turn, B4 came in with an IC50 of 0.16 nM.

B5: the IC50 amounted to 0.289 nM.

As for B6, the half-inhibitory concentration (IC50) was 0.249 nM.

The target in the next assay is T2, human Ang-2. Description: competition ELISA vs Tie-2. This is another data set of the same source.
Take B1: the IC50 was 0.05 nM.

Molecule B3 gave an IC50 of 0.03 nM.

B6: the IC50 turned out to be 0.17 nM.

The next assay concerns the target T2, human Ang-2. Description: competition ELISA vs Tie-2. The source holds these as a separate data set.
In turn, B2 displayed an IC50 of 0.1 nM.

In the case of B4, the IC50 stood at 0.09 nM.

A further assay deals with T6, cAng-2 (UniProt O15123).
T6 chain: T2 chain
Description: competition ELISA vs Tie-2.
Regarding B3, the IC50 was 0.108 nM.

Consider B5, for which the IC50 is 0.54 nM.

The molecule B6 yielded an IC50 of 0.608 nM.

For another assay, the target named is T2, human Ang-2. Description: SPR. This is another data set of the same source.
On to B7, for which the Kd came to 8.2 nM.

B8 gave a Kd of 3.1 nM.

In a further assay the target is T4, human Ang-1. Put plainly: competition ELISA vs Tie-2. This is another data set of the same source.
For the molecule B7, the half-maximal inhibitory concentration (IC50) is above 1000 nM.

B8: the IC50 is above 1000 nM.

For another assay, the target named is T2, human Ang-2. Description: competition ELISA vs Tie-2. The source holds these as a separate data set.
Consider B7, for which the IC50 was 21 nM.

Consider B8, for which the IC50 came to 6 nM.

In the case of B5, the half-maximal inhibitory concentration (IC50) amounted to 0.2 nM.

A further assay concerns the target T5, mouse Ang-2. Put plainly: competition ELISA vs Tie-2. This is another data set of the same source.
Turning to B7, the IC50 worked out at 7.7 nM.

The molecule B8 gave an IC50 of 11 nM.

Regarding B5, the IC50 came out at 0.3 nM.

A further assay has as its target T5, mouse Ang-2. Description: SPR.
The molecule B7 registered a Kd of 0.32 nM.

In turn, B8 registered a Kd of 0.42 nM.
